Data taken from doi:10.1101/2022.02.08.479534, “FoxP3 can fold into two distinct dimerization states with divergent functional implications for T cell homeostasis”.
Where a chain is given by its changes, count along the chain named.

How the values were obtained:
[1] = target: T1, NusA-FoxP2RBR-forkhead (Mus musculus, UniProt P58463 447-588); test: EMSA; equal to sFKHM; EMSA: 0.2 uM DNA, 20 mM Tris pH 7.5, 150 mM NaCl, 1.5 mM MgCl2, 2 mM DTT, 30 min at 4 C; anti-HA bead DNA pull-down: 20 min at room temperature; the EMSA IR-FKHM4g length is taken as 31 bp; conditions: protein: recombinant; tags: His6-NusA; blunt
T1 sequence: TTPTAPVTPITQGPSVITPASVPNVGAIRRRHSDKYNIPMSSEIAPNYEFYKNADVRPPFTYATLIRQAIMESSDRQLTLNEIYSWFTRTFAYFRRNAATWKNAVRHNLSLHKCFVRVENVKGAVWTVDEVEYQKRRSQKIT

[2] = target: T2, FoxP3ΔN'' (Mus musculus, UniProt Q99JB6 204-417, C217S;C231S;del277-314); test: EMSA; EMSA: 0.2 uM DNA, 20 mM Tris pH 7.5, 150 mM NaCl, 1.5 mM MgCl2, 2 mM DTT, 30 min at 4 C; anti-HA bead DNA pull-down: 20 min at room temperature; the EMSA IR-FKHM4g length is taken as 31 bp; conditions: protein: recombinant; tags: His6-NusA cleaved; chain copies: 2; blunt
T2 sequence: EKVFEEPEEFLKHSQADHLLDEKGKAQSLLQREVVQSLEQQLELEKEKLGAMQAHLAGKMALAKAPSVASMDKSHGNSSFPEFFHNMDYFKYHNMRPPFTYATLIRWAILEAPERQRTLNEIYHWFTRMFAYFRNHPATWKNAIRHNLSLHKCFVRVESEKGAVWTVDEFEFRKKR

[3] = target: T3, NusA-FoxP3RBR-forkhead A372S (Mus musculus, UniProt Q99JB6 284-423, A372S); test: as above; conditions: protein: recombinant; tags: His6-NusA; blunt
T3 sequence: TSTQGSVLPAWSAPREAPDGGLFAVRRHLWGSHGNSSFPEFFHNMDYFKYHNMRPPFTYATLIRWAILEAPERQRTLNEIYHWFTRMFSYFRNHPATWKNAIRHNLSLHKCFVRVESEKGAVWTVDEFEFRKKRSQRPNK

[4] = target: T4, FoxP3ΔN (Mus musculus, UniProt Q99JB6 188-423); test: as above; conditions: protein: recombinant; tags: His6-NusA cleaved (HRV3C); chain copies: 2; blunt
T4 sequence: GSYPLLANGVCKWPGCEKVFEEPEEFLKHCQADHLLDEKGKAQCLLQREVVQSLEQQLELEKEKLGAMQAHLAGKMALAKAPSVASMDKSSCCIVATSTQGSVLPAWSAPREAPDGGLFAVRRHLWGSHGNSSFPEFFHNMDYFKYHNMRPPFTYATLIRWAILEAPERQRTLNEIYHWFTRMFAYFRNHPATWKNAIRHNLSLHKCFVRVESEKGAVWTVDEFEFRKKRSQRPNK

[5] = target: T5, FoxP3RBR-forkhead (Mus musculus, UniProt Q99JB6 284-423); test: as above; conditions: protein: recombinant; tags: His6-NusA cleaved (HRV3C); blunt
T5 sequence: T3 sequence with S89A

[6] = target: T6, NusA-FoxP3RBR-forkhead (Mus musculus, UniProt Q99JB6 284-423); test: as above; conditions: protein: recombinant; tags: His6-NusA; blunt
T6 sequence: T3 sequence with S89A

[7] = target: T7, NusA-FoxP3RBR-forkhead A372G (Mus musculus, UniProt Q99JB6 284-423, A372G); test: as above; conditions: protein: recombinant; tags: His6-NusA; blunt
T7 sequence: T3 sequence with S89G

[8] = target: T8, FoxP3ΔN' (Mus musculus, UniProt Q99JB6 204-417, C217S;C231S;del277-304); test: as above; conditions: protein: recombinant; tags: His6-NusA cleaved; chain copies: 2; blunt
T8 sequence: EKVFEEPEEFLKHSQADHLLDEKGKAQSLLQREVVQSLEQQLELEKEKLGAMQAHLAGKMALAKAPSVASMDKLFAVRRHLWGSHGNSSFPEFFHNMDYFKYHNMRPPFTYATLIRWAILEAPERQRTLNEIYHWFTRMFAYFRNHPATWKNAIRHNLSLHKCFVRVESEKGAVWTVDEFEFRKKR

Measured: binding result

B1: IR-FKHM4g (31bp) (dsDNA)
DNA 1: TTAGGAAAATTTGTTTACTCGAGTAAACAAA
DNA 2: TTTGTTTACTCGAGTAAACAAATTTTCCTAA
binds: all assays above
